From patent publication US20210403593A1 (TIZONA THERAPEUTICS, published 2021)
Substitutions are numbered along the chain they refer to. Blank lines part the entries; values can stand above or below the binder they belong to.

What was measured:
Chimera #2 = target: T1, Chimera #2 (human, UniProt P49961 1-510); experiment: FACS on CHO cells; human M1-E142 + mouse Q143-S158 ([..]) + human Y159-V510
T1 construct: Expressed on CHO cells; also called human-mouse Chimera #2
T1 chain: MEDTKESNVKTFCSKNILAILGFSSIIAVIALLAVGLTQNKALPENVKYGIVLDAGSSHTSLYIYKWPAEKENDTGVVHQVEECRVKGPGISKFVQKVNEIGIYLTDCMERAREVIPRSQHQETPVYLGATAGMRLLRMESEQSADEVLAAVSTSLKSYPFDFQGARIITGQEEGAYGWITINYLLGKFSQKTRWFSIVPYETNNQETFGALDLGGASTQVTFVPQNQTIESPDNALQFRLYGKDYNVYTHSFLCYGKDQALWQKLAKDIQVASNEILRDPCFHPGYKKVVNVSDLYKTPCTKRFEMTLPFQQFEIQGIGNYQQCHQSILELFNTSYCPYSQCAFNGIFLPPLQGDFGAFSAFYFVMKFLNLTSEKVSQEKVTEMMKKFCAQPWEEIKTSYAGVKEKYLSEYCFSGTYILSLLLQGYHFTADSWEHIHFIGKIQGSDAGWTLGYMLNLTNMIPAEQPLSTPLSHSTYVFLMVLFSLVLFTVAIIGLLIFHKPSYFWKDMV
Method: (§1) The chimeras were expressed in CHO cells and the ability of anti-human CD39 antibodies to bind the chimeras tested via FACS. In brief, cells were washed and blocked in FACS buffer (PBS/2% FBS) for 30 min on ice. […] After 2 washes, cells were resuspended in FACS buffer and analyzed on BD Fortessa. Data was processed with FlowJo.

human CD39 (cellular) = target: T2, human CD39 (cellular) (human, UniProt P49961 1-510); experiment: flow cytometry, 100 nM IgG, MFI on CHO-hCD39 / MFI on parental CHO;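 note: cells exposed to IgG for 30 min on ice in PBS, bound antibody then revealed with a fluorescent goat anti-human IgG secondary (20 min, on ice)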
T2 construct: Same protein on engineered CHO cells and on cells that express it endogenously; also called hCD39; cellular CD39
T2 sequence: T1 chain with Q143E, S144L, E147R, A150D, A151V, S153E, T154R, K157S, S158N
Method: 100 nanomolar IgGs (each antibody is indicated as a unique clone number in the FIG.) were incubated at 25° C. for 30 minutes on ice in phosphate buffered saline (PBS) with parental CHO cells or CHO cells engineered to express either human or cynomolgus macaque (Macaca fascicularis) CD39 (CHO CD39 cells). Cells were then washed with ice cold PBS and incubated with a fluorescently labeled goat-anti-human IgG for 20 minutes on ice. Cells were washed and resuspended in ice cold PBS prior to analysis by flow cytometry.

Chimera #10 = target: T3, Chimera #10 (Homo sapiens (Human), UniProt P49961 1-510); experiment: FACS on CHO cells; Chimera 2 with human E153 ([..])
T3 construct: Expressed on CHO cells
T3 chain: T1 chain with S153E
Method: as §1

Chimera #9 = target: T4, Chimera #9 (Homo sapiens (Human), UniProt P49961 1-510); experiment: FACS on CHO cells; Chimera 2 with human D150 ([..])
T4 construct: Expressed on CHO cells
T4 chain: T1 chain with A150D
Method: (§2) The chimeras were expressed in CHO cells and the ability of anti-human CD39 antibodies to bind the chimeras tested via FACS. In brief, cells were washed and blocked in FACS buffer (PBS/2% FBS) for 30 min on ice. […] After 2 washes, cells were resuspended in FACS buffer and analyzed on BD Fortessa. Data was processed with FlowJo. Positive binding was scored as “yes” and lack of binding was scored as “NO” and examples of FACS plots used to generate this table are in FIGS. 14.F and 14.G.

Chimera #14 = target: T5, Chimera #14 (Homo sapiens (Human), UniProt P49961 1-510); experiment: FACS on CHO cells; human CD39 with mouse S153 and T154
T5 construct: Expressed on CHO cells
T5 sequence: T1 chain with Q143E, S144L, E147R, A150D, A151V, K157S, S158N
Method: as §2

binding result (Chimera #2): no binding (tested: 15 ug/ml) | Cell Binding (FOB) (human CD39 (cellular)): 1110 fold over background | binding result (Chimera #10): no binding (tested: 15 ug/ml) | binding result (Chimera #9): no binding (tested: 15 ug/ml) | binding result (Chimera #14): no binding (tested: 15 ug/ml)
B1: 31901 (antibody, human IgG4 S228P, kappa, V domains shown)
VH: QVQLVQSGAEVKKPGSSVKVSCKASGGTFSSLPISWVRQAPGQGLEWMGGIGFGTANYAQKFQGRVTITADESTSTAYMELSSLRSEDTAVYYCARGGAKYAGRYGMDVWGQGTTVTVSS
VL: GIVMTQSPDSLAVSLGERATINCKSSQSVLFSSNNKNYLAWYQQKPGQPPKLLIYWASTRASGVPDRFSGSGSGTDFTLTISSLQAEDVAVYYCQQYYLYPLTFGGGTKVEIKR

binding result (Chimera #2): no binding (tested: 15 ug/ml) | Cell Binding (FOB) (human CD39 (cellular)): 1080 fold over background | binding result (Chimera #10): no binding (tested: 15 ug/ml) | binding result (Chimera #9): no binding (tested: 15 ug/ml) | binding result (Chimera #14): no binding (tested: 15 ug/ml)
B2: 31905 (antibody, human IgG4 S228P, kappa, V domains shown)
VH: B1 VH with S30P, L32N, P33A, G103R, R104T
VL: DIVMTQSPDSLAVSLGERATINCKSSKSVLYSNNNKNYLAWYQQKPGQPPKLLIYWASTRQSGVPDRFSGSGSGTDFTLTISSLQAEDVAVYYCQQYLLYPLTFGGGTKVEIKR
